Test [1] addresses T1, human (Homo sapiens) CD37 (human (Homo sapiens), UniProt P11049 1-281).
T1 construct: Full-length protein on cells: endogenous on Daudi cells, Raji cells and B cells in human blood; also called Leukocyte Antigen CD37; GP52-40
T1 sequence: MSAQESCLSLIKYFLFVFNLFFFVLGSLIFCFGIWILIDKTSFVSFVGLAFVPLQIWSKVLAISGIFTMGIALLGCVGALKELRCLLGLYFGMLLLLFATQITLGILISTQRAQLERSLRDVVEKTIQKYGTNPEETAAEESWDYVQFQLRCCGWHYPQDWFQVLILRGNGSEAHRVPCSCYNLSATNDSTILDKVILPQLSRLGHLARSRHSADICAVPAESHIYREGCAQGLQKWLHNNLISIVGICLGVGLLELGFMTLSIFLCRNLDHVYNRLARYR
The test can be described thus: flow cytometry, A488-labeled antibody on B cells in human whole blood; average of 6 donors. Here is the method:
(§1) Cells were pelleted and washed twice in 150 μL FACS buffer and resuspended in 150 μL TO-PRO-3 (end concentration 0.2 μM; Molecular Probes, cat no. T3605). Samples were measured by flow cytometry using an LSRFortessa flow cytometer. Binding is expressed as geometric mean of A488 fluorescence intensity for viable TO-PRO-3⁻/CD14⁻/CD19⁺ B-cells (human) or viable TO-PRO-3⁻/CD14⁻/CD19+/CD20+ B-cells (cynomolgus monkey). Log-transformed data were analyzed using best-fit values of a non-linear dose-response fit in GraphPad PRISM.
For orientation: Flow cytometry measures light scatter and fluorescence of single cells or particles in a stream.

The target of test [2] is T2, cynomolgus monkey (Macaca fascicularis) CD37 (cynomolgus monkey (Macaca fascicularis), UniProt P11049 1-281 (human entry)).
T2 construct: also called mfCD37; Cynomolgus CD37
T2 chain: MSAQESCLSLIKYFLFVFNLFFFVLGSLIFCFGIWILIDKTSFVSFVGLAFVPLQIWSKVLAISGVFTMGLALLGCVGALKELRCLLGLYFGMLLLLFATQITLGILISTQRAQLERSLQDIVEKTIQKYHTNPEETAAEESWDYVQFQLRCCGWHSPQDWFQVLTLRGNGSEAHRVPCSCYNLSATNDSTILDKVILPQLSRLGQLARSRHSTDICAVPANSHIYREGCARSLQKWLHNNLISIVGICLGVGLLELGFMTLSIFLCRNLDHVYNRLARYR
The test can be described thus: flow cytometry, A488-labeled antibody on B cells in cynomolgus monkey whole blood; average of 4 animals. Here is the method:
as §1

B1: bsIgG1-016-H5L2-LC90S-F405L-E430Gx010-H5L2-K409R-E430G (bispecific antibody)
heavy 1: not shown
light 1: DVVMTQSPSTLSASVGDRVTITCQASQNIDSNLAWYQQKPGKAPKFLIYYASNLPFGVPSRFKGSGSGTEFTLTISSLQPDDFATYYCQSADVGSTYVAAFGGGTKVEIKRTVAAPSVFIFPPSDEQLKSGTASVVCLLNNFYPREAKVQWKVDNALQSGNSQESVTEQDSKDSTYSLSSTLTLSKADYEKHKVYACEVTHQGLSSPVTKSFNRGEC
heavy 2: not shown
light 2: AYDMTQSPSTLSASVGDRVTITCQASQNIIDYLAWYQQKPGKAPKLLIHKASTLASGVPSRFKGSGSGTEFTLTISSLQPDDFATYYCQQGYSNSNIDNTFGGGTKVEIKRTVAAPSVFIFPPSDEQLKSGTASVVCLLNNFYPREAKVQWKVDNALQSGNSQESVTEQDSKDSTYSLSSTLTLSKADYEKHKVYACEVTHQGLSSPVTKSFNRGEC
As usually defined, the EC50 is the concentration that produces a half-maximal response. On to B1, for which the EC50 in test [1] turned out to be 0.85 µg/mL; in test [2], 0.63 µg/mL.

For the origin of these results see patent publication US20200270359A1 (Genmab, published 2020).
